Test results taken from publication PMC6104945, “Structures of NHBA elucidate a broadly conserved epitope identified by a vaccine induced antibody” (PLoS ONE, 2018).

Molecular target: T1, FL NHBA variant p3 (strain MC58) (Neisseria meningitidis MC58, UniProt Q7DD37, strain)
T1 construct: also called NHBAp3 (MC58); source: recombinant, purified protein antigen
Test: SPR; single-cycle kinetics, Biacore T200, 25°C; Fab 5H2 (~800-1100 RU) captured by anti-human Fab antibodies on CM5; NHBA antigen injected at 3.125-50 nM, 30 uL/min; HBS-EP pH 7.4; 1:1 Langmuir model with mass transfer term; triplicate
Conditions: both partners purified

B1: Fab 5H2 (Fab derived from the vaccine-elicited human monoclonal antibody 5H2) (Fab, V domains shown)
VH: QVQLQESGPGLVKPSETLSLTCTVSGGSVSSGSSYWTWIRQTPGKGLEWIGYTSYSGSTKYNPSLKSRVTLSVDMSKNQFSLKLKSVTAADTAVYFCARDRFDVASGSSFDFWGQGTLVTVSS
VL: EIVMTQTPSSLSASVGDRVTITCRASQSISNYLNWYQQKPGTAPKLLTYAASSLGSGVPSRFSGSGSGTDLTLTISSLRPEDFATYYCQQSYGSPTFGQGTKLEIR
notes: they are in the structures deposited here: PDB 5NYX chains H, M, O and PDB 5O1R chains H, I (residues Q1-C226 modelled); they are in the structures deposited here: PDB 5NYX chains L, N, P and PDB 5O1R chains L, M (residues E1-E212 modelled); Recombinant Fab; variable region genes synthesised; also called huFab 5H2; source: Expi293 cells, transient transfection, purified from supernatant …
  Kd: 0.4 nM
